Experimental data as given in patent publication US20140148397A1 (University of California, published 2014).
Ends that are not written are not given here.

B1: AgRP(83-120) (peptide)
peptide: SSRRCVRLHESCLGQQVPCCDPAATCYCRFFNAFCYCR-NH2
modifications: disulfide (positions not given here); not fully specified; also: oxidatively folded, disulfide pairing not given here
B2: AgRP(87-120) (peptide)
peptide: Ac-CVRLHESCLGQQVPCCDPAATCYCRFFNAFCYCR-NH2
modifications: disulfide (positions not given here); not fully specified; also: oxidatively folded, disulfide pairing not given here

Tests used:
[1] = target: hMC3R (human, UniProt P41968 1-323); assay: cell-based or functional assay
[2] = target: hMC4R (human, UniProt P32245 1-332); assay: cell-based or functional assay
Sequence of hMC4R (P32245 whole entry): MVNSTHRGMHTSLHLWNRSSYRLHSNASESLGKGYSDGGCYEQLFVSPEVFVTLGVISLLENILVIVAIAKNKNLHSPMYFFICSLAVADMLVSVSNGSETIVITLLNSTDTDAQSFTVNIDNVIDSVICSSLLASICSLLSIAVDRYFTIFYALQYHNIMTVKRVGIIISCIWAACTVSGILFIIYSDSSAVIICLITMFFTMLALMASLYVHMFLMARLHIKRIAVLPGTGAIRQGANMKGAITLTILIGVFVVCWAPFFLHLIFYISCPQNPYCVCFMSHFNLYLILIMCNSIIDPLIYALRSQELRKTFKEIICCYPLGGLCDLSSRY

Sequence of hMC3R (P41968 whole entry): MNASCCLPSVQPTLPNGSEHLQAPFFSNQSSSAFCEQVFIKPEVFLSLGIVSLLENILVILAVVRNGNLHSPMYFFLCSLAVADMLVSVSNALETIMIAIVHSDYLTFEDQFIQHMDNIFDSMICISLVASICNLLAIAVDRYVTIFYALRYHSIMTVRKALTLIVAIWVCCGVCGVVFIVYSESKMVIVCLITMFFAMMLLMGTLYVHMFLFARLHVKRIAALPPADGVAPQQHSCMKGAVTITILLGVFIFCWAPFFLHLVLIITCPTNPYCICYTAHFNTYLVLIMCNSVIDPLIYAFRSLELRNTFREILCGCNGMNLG

Row | Binder | EC50 (nM), NDP-MSH stimulated cAMP production in the presence of 0.10 µM AgRP protein [1] [nM] | EC50 (nM), NDP-MSH stimulated cAMP production in the presence of 0.10 µM AgRP protein [2] [nM]
1 | B1 | 2.96 | 4.92
2 | SSRRCVRLHESCLGQQVPCCDPCATCYCRFFNAFCYCRQLGTAMNPCSQT-NH2 (disulfide (positions not given here)) [AgRP-2Q] | 9.22 | 6.66
3 | KKRRCVRLHESCLGQQVPCCDPCATCYCRFFNAFCYCRKLKTKMNPCSRT-NH2 (disulfide (positions not given here)) [AgRP-4K] | 2.66 | 1.72
4 | SSRRCVRLHESCLGQQVPCCDPCATCYCRFFNAFCYCRKLKTKMNPCSRT-NH2 (disulfide (positions not given here)) [AgRP-2K] | 16.1 | 4.54
5 | SSQQCVRLHESCLGQQVPCCDPCATCYCRFFNAFCYCRQLGTAMNPCSQT-NH2 (disulfide (positions not given here)) [AgRP-4Q] | 1.62 | 1.8
6 | B2 | 5.5 | –
